Measured values published in patent US8461305B2, “L-fucose α1→6 specific lectin” (J-Oil Mills, Inc., priority 2008, dated 2013).

Assays:
[1] = target: T1, α-fetoprotein-L3 (Homo sapiens, UniProt P02771); test: detection of tumor marker sugar chain by ELISA; format: binding; conditions: α-fetoprotein-L3 from culture supernatant of human liver cancer cells, coated at 0.01 μg/ml
T1 construct: prepared from the culture supernatant of human liver cancer cells; endogenous in cells
T1 sequence (P02771 19-609): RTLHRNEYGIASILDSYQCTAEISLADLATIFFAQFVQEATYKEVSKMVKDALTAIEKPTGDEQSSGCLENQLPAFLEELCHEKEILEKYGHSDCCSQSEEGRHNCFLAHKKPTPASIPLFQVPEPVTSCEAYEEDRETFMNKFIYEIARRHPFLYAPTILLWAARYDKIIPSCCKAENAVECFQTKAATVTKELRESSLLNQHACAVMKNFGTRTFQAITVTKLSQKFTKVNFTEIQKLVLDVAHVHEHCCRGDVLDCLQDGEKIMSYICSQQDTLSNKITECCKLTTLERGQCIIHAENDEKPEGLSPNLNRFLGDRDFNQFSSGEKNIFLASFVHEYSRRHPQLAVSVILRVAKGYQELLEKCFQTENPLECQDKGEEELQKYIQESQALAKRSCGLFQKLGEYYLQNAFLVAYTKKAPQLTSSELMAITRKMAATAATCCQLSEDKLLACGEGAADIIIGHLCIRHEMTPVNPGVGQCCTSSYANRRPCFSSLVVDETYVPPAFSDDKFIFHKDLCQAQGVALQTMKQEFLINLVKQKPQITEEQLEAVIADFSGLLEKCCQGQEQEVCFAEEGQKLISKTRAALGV
Text: (§1) α-fetoprotein (hereinafter referred to as “AFP”) is a glycoprotein included in a blood serum having an N-linked sugar chain. Substantially no AFP exists in the blood serum of a healthy adult. On the other hand, the blood serum of a patient having a benign liver disease has an increased α-fetoprotein L1-type sugar chain (AFP-L1). Furthermore, α-fetoprotein L3-type sugar chain (AFP-L3) is detected in a patient of a liver cancer. Conventionally, the difference in a sugar chain has been measured by LCA and the measurement result has been used for the diagnosis of a liver disease.
(§2) PTL of Example 1, SRL of Example 2, AAL of Comparison Example 1, AOL of Comparison Example 2, and the LCA of Comparison Example 3 that were biotin-labeled were used to evaluate the binding property of α-fetoprotein by ELISA.
(§3) 0.1 M carbonic acid buffer solution (pH 9.5) was used to dilute α-fetoprotein (derived from human umbilical cord blood serum, mainly L1-type sugar chain) and α-fetoprotein-L3 (prepared from the culture supernatant of human liver cancer cells) so as to achieve 0.01 μg/ml. Then, the resultant solution was added to a microtiter plate (Nunc) and was incubated at 4 degrees C. one night. After the solution was cleaned by 0.05% Tween/PBS three times, 1% BSA/PBS was added to wells and the solution was incubated at 37 degrees C. for one hour. After the solution was washed by 0.05% Tween/PBS three times, the wells were added with the biotin-labeled lectin solution appropriately diluted by 1% BSA/0.05% Tween/PBS and the solution was incubated at 37 degrees C. for one hour. After the solution was cleaned by 0.05% Tween/PBS three times, HRP labeled streptavidin solution diluted by 1% BSA/0.05% Tween/PBS was added and the solution was incubated at 37 degrees C. for 30 minutes. After the solution was cleaned by 0.05% Tween/PBS three times, TMB Peroxidase substrate system (KPL) was added and the resultant solution was incubated at a room temperature for 10 minutes while light was being blocked. The reaction was stopped by 1 M phosphoric acid. Then, a microplate reader (MPR-A4i, TOSOH CORPORATION) was used to measure the absorbance at 450 nm.
(§4) The absorbance at 450 nm of the plate on which α-fetoprotein and α-fetoprotein-L3 were caused to react with lectin was measured. Based on this value, the reaction value ([absorbance at 450 nm of a well for which glycoprotein was solid-phased to the plate and reacted]−[absorbance at 450 nm of a well for which glycoprotein was not solid-phased to the plate and reacted]) was calculated. Next, for each lectin, the interaction was calculated. Next, the calculation result of the reaction values is shown in Table 10 and FIG. 24 to FIG. 28.

[2] = target: T2, α-fetoprotein (mainly L1-type sugar chain) (Homo sapiens, UniProt P02771); test: detection of tumor marker sugar chain by ELISA; format: binding; conditions: α-fetoprotein from human umbilical cord blood serum, coated at 0.01 μg/ml
T2 construct: derived from human umbilical cord blood serum; from tissue; host or cells: human umbilical cord blood serum
T2 sequence (P02771 19-609): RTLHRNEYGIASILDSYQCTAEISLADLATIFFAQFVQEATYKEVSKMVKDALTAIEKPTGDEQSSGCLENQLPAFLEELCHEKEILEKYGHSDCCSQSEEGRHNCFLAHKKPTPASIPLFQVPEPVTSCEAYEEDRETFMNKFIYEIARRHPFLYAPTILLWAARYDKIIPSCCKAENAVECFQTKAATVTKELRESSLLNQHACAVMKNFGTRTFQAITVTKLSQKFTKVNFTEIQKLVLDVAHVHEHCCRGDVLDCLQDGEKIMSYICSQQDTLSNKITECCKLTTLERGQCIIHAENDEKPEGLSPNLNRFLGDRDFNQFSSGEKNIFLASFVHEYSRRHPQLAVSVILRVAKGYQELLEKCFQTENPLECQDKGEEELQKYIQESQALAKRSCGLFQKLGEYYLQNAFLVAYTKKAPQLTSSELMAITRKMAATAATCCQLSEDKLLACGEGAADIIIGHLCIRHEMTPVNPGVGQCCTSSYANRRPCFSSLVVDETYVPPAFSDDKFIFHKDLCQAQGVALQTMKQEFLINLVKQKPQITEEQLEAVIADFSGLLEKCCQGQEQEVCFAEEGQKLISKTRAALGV
Text: as §1, §2, §3, §4

Row | Molecule | reaction value (absorbance at 450 nm, blank-subtracted) by ELISA [1] | reaction value (absorbance at 450 nm, blank-subtracted) by ELISA [2]
1 | Aspergillus oryzae lectin [AOL, reference compound] | 0.898 | 0.011
2 | Stropharia rugosoannulata lectin [SRL, novel L-fucose α1→6 specific lectin purified from the mushroom Stropharia rugosoannulata] | 1.625 | 0.031
3 | Pholiota terrestris lectin [PTL, novel L-fucose α1→6 specific lectin purified from the mushroom Pholiota terrestris] | 1.548 | 0.039
4 | Lens culinaris agglutinin (protein) chain 1: TETTSFSITKFSPDQKNLIFQGDGYTTKGKLTLTKAVKSTVGRALYSTPIHIWDRDTGNVANFVTSFTFVIDAPSSYNVADEFTFFIAPVDTKPQTGGGYLGVFNSKEYDKTSQTVAVEFDTFYNAAWDPSNKERHIGIDVNSIKSVNTKSWNLQNGERANVVIAFNAATNVLTVTLTYP chain 2: VTSYTLNEVVPLKDVVPEWVRIGFSATTGAEFAAHEVHSWSFHSELGGTSSS | 0.455 | 0.010
5 | Aleuria aurantia lectin (protein) PTEFLYTSKIAAISWAATGGRQQRVYFQDLNGKIREAQRGGDNPWTGGSSQNVIGEAKLFSPLAAVTWKSAQGIQIRVYCVNKDNILSEFVYDGSKWITGQLGSVGVKVGSNSKLAALQWGGSESAPPNIRVYYQKSNGSGSSIHEYVWSGKWTAGASFGSTVPGTGIGATAIGPGRLRIYYQATDNKIREHCWDSNSWYVGGFSASASAGVSIAAISWGSTPNIRVYWQKGREELYEAAYGGSWNTPGQIKDASRPTPSLPDTFIAANSSGNIDISVFFQASGVSLQQWQWISGKGWSIGAVVPTGTPAGW | 0.795 | −0.049
